Laboratory results published in PMC5986765 (Cell Discovery, 2018).
Bridge positions count the residues as written; N and C are the ends. Ends that are not written are not given here.

T1: chicken ASIC1a (cASIC1a) (Gallus gallus, UniProt Q1XA76)
T1 construct: expressed in transfected cells; host or cells: CHO cells, transient transfection, pcDNA3.1/Zeo(+)
T1 sequence (Q1XA76 1-527): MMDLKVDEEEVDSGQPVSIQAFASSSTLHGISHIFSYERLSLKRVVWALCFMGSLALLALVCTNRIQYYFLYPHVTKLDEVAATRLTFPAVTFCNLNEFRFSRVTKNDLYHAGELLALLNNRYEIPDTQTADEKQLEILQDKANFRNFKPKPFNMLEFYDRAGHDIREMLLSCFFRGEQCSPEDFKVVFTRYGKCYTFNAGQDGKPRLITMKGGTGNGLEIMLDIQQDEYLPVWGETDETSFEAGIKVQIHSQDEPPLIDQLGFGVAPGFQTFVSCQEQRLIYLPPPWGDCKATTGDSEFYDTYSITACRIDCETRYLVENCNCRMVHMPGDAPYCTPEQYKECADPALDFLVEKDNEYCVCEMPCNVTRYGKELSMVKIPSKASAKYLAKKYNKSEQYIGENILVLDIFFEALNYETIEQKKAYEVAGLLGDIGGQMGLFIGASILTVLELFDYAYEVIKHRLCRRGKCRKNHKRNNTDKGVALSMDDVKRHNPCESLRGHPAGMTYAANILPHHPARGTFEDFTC

T2: human ASIC1a (hASIC1a) (Homo sapiens, UniProt P78348)
T2 construct: expressed in transfected cells; host or cells: CHO cells
T2 sequence (P78348 1-528): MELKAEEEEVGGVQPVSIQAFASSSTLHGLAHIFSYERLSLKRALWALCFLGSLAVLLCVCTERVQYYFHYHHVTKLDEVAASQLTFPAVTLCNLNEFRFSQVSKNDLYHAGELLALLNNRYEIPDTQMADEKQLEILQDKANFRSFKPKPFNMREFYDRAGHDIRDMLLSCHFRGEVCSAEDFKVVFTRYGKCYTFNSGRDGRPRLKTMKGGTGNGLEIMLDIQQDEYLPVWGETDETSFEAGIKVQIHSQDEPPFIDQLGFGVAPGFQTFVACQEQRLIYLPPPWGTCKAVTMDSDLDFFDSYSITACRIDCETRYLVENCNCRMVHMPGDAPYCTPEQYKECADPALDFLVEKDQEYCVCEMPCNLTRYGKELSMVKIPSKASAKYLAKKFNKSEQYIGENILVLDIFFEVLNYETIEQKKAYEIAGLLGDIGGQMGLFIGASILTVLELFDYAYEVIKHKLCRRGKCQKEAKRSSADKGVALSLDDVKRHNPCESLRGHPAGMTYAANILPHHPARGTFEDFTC

B1: mambalgin-1 (peptide)
chain: LKCYQHGKVVTCHRDMKFCYHNTGMPFRNLKLILQGCSSSCSETENNKCCSTDRCNK
notes: also called synthetic mambalgin-1; wild-type mambalgin-1
B2: truncated chicken ASIC1a (residues 14-463), cASIC1a^ΔNC (domain or fragment)
chain: GQPVSIQAFASSSTLHGISHIFSYERLSLKRVVWALCFMGSLALLALVCTNRIQYYFLYPHVTKLDEVAATRLTFPAVTFCNLNEFRFSRVTKNDLYHAGELLALLNNRYEIPDTQTADEKQLEILQDKANFRNFKPKPFNMLEFYDRAGHDIREMLLSCFFRGEQCSPEDFKVVFTRYGKCYTFNAGQDGKPRLITMKGGTGNGLEIMLDIQQDEYLPVWGETDETSFEAGIKVQIHSQDEPPLIDQLGFGVAPGFQTFVSCQEQRLIYLPPPWGDCKATTGDSEFYDTYSITACRIDCETRYLVENCNCRMVHMPGDAPYCTPEQYKECADPALDFLVEKDNEYCVCEMPCNVTRYGKELSMVKIPSKASAKYLAKKYNKSEQYIGENILVLDIFFEALNYETIEQKKAYEVAGLLGDIGGQMGLFIGASILTVLELFDYAYEVIKHR
notes: not shown: His8, N-terminal, cleaved; EGFP, N-terminal, cleaved

Tests used:
[1] = target: T1, chicken ASIC1a (cASIC1a); assay: whole-cell patch clamp in CHO cells, inhibition of chicken ASIC1a; type: cell-based; conditions: for effect of mambalgin-1 point mutants on wild-type cASIC1a: 500 nM, means ± S.E., t-test versus WT, n = 4–13, bar graph Fig. 3e, values not given
Source text: (§1) Fig. 1 Chemical synthesis and bioactivity analysis of mambalgin-1. a Synthetic route of mambalgin-1 and its mutants. b Synthetic mambalgin-1 inhibits recombinant human and chicken ASIC1a (hASIC1a and cASIC1a) channels in CHO cells. After two stable records of acid currents that were elicited by a pH drop from 7.4 to 6.0 for 4 s, synthetic mambalgin-1 was applied at pH 7.4 for 30 s followed by another application during a 4spH drop to 6.0. c Concentration–response curve showing the inhibition of hASIC1a and cASIC1a channels expressed in CHO cells (n = 3–14) by synthetic wild-type mambalgin-1
The coding sequence for wild-type cASIC1a was sub-cloned into the pcDNA3.1/Zeo( + ) vector. All site-directed mutations were generated with overlap PCR and inserted into pcDNA3.1/Zeo(+). The mutants were sequenced to verify that no unwanted mutations had been introduced. Chinese hamster ovary (CHO) cells were cultured in DMEM/F12 medium (Gibco) supplemented with 10% fetal bovine serum (FBS), 100 U/mL penicillin, and 100 U/mL streptomycin at 37 °C in a 5% CO2 incubator. The CHO cells were transferred to 24-well plates for transfection. When the CHO cells reached 90% confluence, they were transfected with 0.6 μg of plasmid encoding EGFP and 0.8 μg of plasmid encoding wild-type or mutant cASIC1a using Lipofectamine 2000 (Invitrogen, USA). After incubation for 5 h, the cells were transferred to poly-L-lysine (Sigma)-coated slides for culture for another 24–48 h in fresh medium. They were then used for the electrophysiological analysis.
For the whole-cell recordings, the bath solution contained 150 mM NaCl, 4 mM KCl, 2 mM CaCl2, 1 mM MgCl2, and 10 mM HEPES (pH 7.4, ~308 mOsm). For acidic solution below pH 6.0, HEPES was replaced by 10 mM MES to buffer solutions. The electrodes were pulled from thick-walled borosilicate glass capillaries with filaments (1.5 mm diameter; Sutter Instruments) on a four-stage puller (P-1000; Sutter, USA) and had resistances of 2–5 MΩ when filled with intracellular solution containing 140 mM KCl, 10 mM NaCl, 5 mM EGTA, 10 mM HEPES, (pH 7.4, ~297 mOsm). All chemicals were obtained from Sigma. The experiments were performed at room temperature with an EPC-10 amplifier (HEKA Electronic) with the data acquisition software PatchMaster. Membrane potential was held at −70 mV in all experiments. Acid-induced currents were recorded by rapidly exchanging local solution from pH 7.4 to acidic pH through a Y-tube perfusion system. Toxins were applied 30 s before the pH decreased and persisted during low pH application. Channels were activated by acid perfusion at least every 2 min to allow for a complete recovery of the channels from desensitization. Recordings in which access resistance or capacitance changed by 10% during the experiment were excluded from data analysis. Mambalgin-1 was added when the currents were stable.
(§2) The data were analyzed with Clampfit and SigmaPlot. The dose–response curves used to determine the IC50 values were fitted using the Hill equation: y = 1 + (Imax−1)/(1 + (IC50/x)^h), where y represents the normalized current, Imax represents the control current of ASIC1 detected in each set of experiments; x is the toxin concentration, h is the Hill coefficient, and IC50 is the half-maximal concentration. The results are presented as the means ± standard errors (SE), and n is the number of experiments.

[2] = test system: ASIC1a; conditions: cited from earlier work
Source text: Mambalgin-1 can bind to and stabilize ASICs in a physiologically relevant closed-channel conformation, but the underlying binding and inhibition mechanism remains elusive. […] Previously, a docked structure of the cASIC1a–mambalgin-1 complex was reported[23],[24], following the crystal structure of the cASIC1a–PcTx1 complex. Mambalgin-1 was predicted to insert into the acidic pocket (also known as the acid-sensing pocket) inside t ...

[3] = test system: mice; conditions: cited from earlier work
Source text: Mambalgin-1, a toxin isolated from black mamba venom, is a disulfide-rich polypeptide consisting of 57 amino acids and belongs to the family of three-finger toxins[31],[38].

[4] = target: T2, human ASIC1a (hASIC1a); assay: whole-cell patch clamp in CHO cells, inhibition of human ASIC1a; type: cell-based; conditions: synthetic mambalgin-1, whole-cell recording at −70 mV, pH drop from 7.4 to 6.0 for 4 s, toxin applied 30 s before at pH 7.4 and during acid, room temperature, Hill fit, mean ± SE, n = 3–14
Source text: as §1
The coding sequence for wild-type cASIC1a was sub-cloned into the pcDNA3.1/Zeo( + ) vector. […]
For the whole-cell recordings, the bath solution contained 150 mM NaCl, 4 mM KCl, 2 mM CaCl2, 1 mM MgCl2, and 10 mM HEPES (pH 7.4, ~308 mOsm). […] Acid-induced currents were recorded by rapidly exchanging local solution from pH 7.4 to acidic pH through a Y-tube perfusion system. […]
as §2, with “The results are presented as the means ± standard errors (SE), and n is the number of experiments.” left out

[5] = target: B2; assay: cryo-EM structure; conditions: both partners purified
[6] = target: the molecule itself; assay: cryo-EM structure; […] 5.7 Å overall map, 5.4 Å map of the extracellular part; poly-alanine model by rigid-body fitting of crystal structures

With “H6A: mutation of mambalgin-1 in the Finger I region (LKCYQAGKVVTCHRDMKFCYHNTGMPFRNLKLILQGCSSSCSETENNKCCSTDRCNK; disulfide (positions not given here); ends not checked; UniProt P0DKR6 22-78, looked up, variant H6A)” the “effect of mambalgin-1 point mutants on wild-type cASIC1a” value (shortened to “effect of mambalgin-1 point mutants”) [1] was “perturbed the inhibitory effects of the cASIC1a channel”.

For “K8A: mutation of mambalgin-1 in the Finger I region (LKCYQHGAVVTCHRDMKFCYHNTGMPFRNLKLILQGCSSSCSETENNKCCSTDRCNK; disulfide (positions not given here); ends not checked; UniProt P0DKR6 22-78, looked up, variant K8A)”, the “effect of mambalgin-1 point mutants” value [1] was “perturbed the inhibitory effects of the cASIC1a channel”.

For “F27A: mutation of mambalgin-1 in the Finger II region (LKCYQHGKVVTCHRDMKFCYHNTGMPARNLKLILQGCSSSCSETENNKCCSTDRCNK; disulfide (positions not given here); ends not checked; UniProt P0DKR6 22-78, looked up, variant F27A)”, the “effect of mambalgin-1 point mutants” value [1] was “perturbed the inhibitory effects of the cASIC1a channel”.

With “R28A: mutation of mambalgin-1 in the Finger II region (LKCYQHGKVVTCHRDMKFCYHNTGMPFANLKLILQGCSSSCSETENNKCCSTDRCNK; disulfide (positions not given here); ends not checked; UniProt P0DKR6 22-78, looked up, variant R28A)” the “effect of mambalgin-1 point mutants” value [1] was “perturbed the inhibitory effects of the cASIC1a channel”.

For “PcTx1 (EDCIPKWKGCVNRHGDCCEGLECWKRRRSFEVCVPKTPKT; ends and bridges not checked; cysteine pairing not given here; UniProt P60514 1-40, looked up)”, the “channel states bound, PcTx1” value [2] is listed as “binds tightly to the open and desensitized states of ASIC1a”.

In the case of “LKCYQHGKVVTCHRDMKFCYHNTGMPFRNLKLILQGCSSSCSETENNKCCSTDRCNK-NH2 (disulfide 3-19, 12-37, 41-49, 50-55) [mambalgin-1]”, the IC50 ([1]; synthetic mambalgin-1, whole-cell recording at −70 mV, pH drop from 7.4 to 6.0 for 4 s, toxin applied 30 s before at pH 7.4 and during acid, room temperature, Hill fit, mean ± SE, n = 3–14) is given as 124 ± 20.3 nM, the “adverse side effects relative to traditional opioid drugs” value [3] is given as “fewer adverse side effects than traditional opioid drugs” and the IC50 [4] is given as 197 ± 18.7 nM.

For “Q5A: mutation of mambalgin-1 in the Finger I region (LKCYAHGKVVTCHRDMKFCYHNTGMPFRNLKLILQGCSSSCSETENNKCCSTDRCNK; disulfide (positions not given here); ends not checked; UniProt P0DKR6 22-78, looked up, variant Q5A)”, the “effect of mambalgin-1 point mutants” value [1] was “perturbed the inhibitory effects of the cASIC1a channel”.

In the case of B1, the “stoichiometry N” value [5] is reported as 3 mambalgin-1 per cASIC1a trimer.

In the case of B2, the “stoichiometry N” value [6] is reported as 3.
